We go through 19 molecules from patent publication US20070099199A1 (published 2007).

“And” between values parts separate entries of the source, which are not always exact repeats. Equal entries are not always repeated.

Sequences and labels used below:
B1: TIP-TIP-IgG fusion protein (two copies of the TIP-1 PDZ domain fused to the hIgG constant region) (Fc fusion)
chain: QRVEIHKLRQGENLILGFSIGGGIDQDPSQNPFSEDKTDKGIYVTRVSEGGPAEIAGLQIGDKIMQVNGWDMTMVTHDQARKRLTKRSEEVVRLLVTRQSLQKQRVEIHKLRQGENLILGFSIGGGIDQDPSQNPFSEDKTDKGIYVTRVSEGGPAEIAGLQIGDKIMQVNGWDMTMVTHDQARKRLTKRSEEVVRLLVTRQSLQK
notes: domain: PDZ domain; not shown: hIgG constant region of the CD5gamma or PEAK10 vector

The first assay concerns the target HPV16 E6 C-terminal PDZ ligand (PL) peptide, biotinylated (human papillomavirus type 16) (UniProt P03126). Put plainly: G assay ELISA; immobilised GST-PDZ, biotin-peptide 10 uM.
Consider GST-AF6 PDZ domain 1, for which the Ave OD came to 0.444 A450 nm and the OD S/N (ratio vs GST only) is 1.8.
On to GST-MAGI1 PDZ domain 5, for which the Ave OD came out at 0.432 A450 nm and the OD S/N (ratio vs GST only) is 1.77.
As for GST-PAR3 PDZ domain 3, clone #278.1, the Ave OD is 0.352 A450 nm and the OD S/N (ratio vs GST only) stood at 1.8.
In the same order, the values of “GST-EZRIN Binding Protein 50 PDZ domain 1, clone #341.1” are 0.43 A450 nm and 1.65.
Consider GST-Densin 180 PDZ domain 1, for which the Ave OD was 0.42 A450 nm and 0.35 A450 nm; the OD S/N (ratio vs GST only) is 1.96 and 1.82.
As to GST-NSP PDZ domain 1, clone #42.5, the Ave OD is 0.416 A450 nm and the OD S/N (ratio vs GST only) was determined as 1.95.
On to “GST-Magi2 PDZ domain 3 (from UniProt Q86UL8 774-865)”, for which the Ave OD is 0.416 A450 nm and 0.359 A450 nm; the OD S/N (ratio vs GST only) is 1.98 and 1.65.
For GST-DLG-6 PDZ domain 1, clone #333.1, the Ave OD worked out at 0.349 A450 nm and the OD S/N (ratio vs GST only) amounted to 2.04.

Another assay addresses HPV E6 #16 PDZ ligand peptide (C-terminal peptide of the E6 protein of HPV 16) (HPV 16) (UniProt P03126). Kind of assay: G assay ELISA, immobilised GST-PDZ, biotin peptide 10 uM. In general terms: An ELISA detects its analyte on a solid surface through an enzyme-linked reagent.
Turning to GST-NSP #268.2 PDZ domain 1, the Ave OD stood at 0.724 A450 nm and the OD S/N (ratio to GST-only well) was 2.58.
In the same order, the values of GST-PDZK1 PDZ domain 3 are 0.5 A450 nm and 1.92.
The matching figures for GST-MAGI 1 PDZ domain 5: 0.541 A450 nm and 3.12.
In the same order, the values of GST-NeDLG PDZ domain 1 are 0.516 A450 nm and 1.98.
As to GST-PDZ-73 PDZ domain 2, the Ave OD is 0.561 A450 nm and the OD S/N (ratio to GST-only well) amounted to 1.95.
As to GST-INADL PDZ domain 3, the Ave OD amounted to 0.485 A450 nm and the OD S/N (ratio to GST-only well) is 1.86.
For the molecule GST-TAX IP 2 PDZ domain 1, the Ave OD was 0.508 A450 nm and 0.478 A450 nm; the OD S/N (ratio to GST-only well) was 2.37 and 2.48.
For GST-KIAA1526 #126.1 PDZ domain 2, the Ave OD worked out at 0.463 A450 nm and the OD S/N (ratio to GST-only well) is 1.87.

The target in the next assay is HPV16 E6 C-terminal PDZ ligand (PL) peptide, biotinylated (human papillomavirus type 16) (UniProt P03126). Put plainly: G assay ELISA; E6 PL peptide titrated on constant GST-PDZ.
Usually EC50 stands for the concentration giving half of the maximal effect. A higher EC50 goes with a less potent agent. In turn, GST-SAST2 PDZ domain 1 came in with an EC50 of 1200 nM.
Take “GST-Magi3 PDZ domain 1 (from UniProt Q5TCQ9 18-106)”: the 50% effective concentration (EC50) is 310 nM.

In another assay the target is T1, GST-HPV11E6 fusion protein (full length E6 of HPV11) (human papillomavirus 11, UniProt P04019 1-150).
T1 construct: domain: full length protein
Kind of assay: modified ELISA: GST-E6 coated at 5 ug/ml, TIP-TIP-IgG supernatant, anti-hIgG-HRP.
As for B1, the binding result is on record as “no binding”.

In the next assay the target is HPV16 E6 C-terminal PDZ ligand (PL) peptide, biotinylated (human papillomavirus type 16) (UniProt P03126). Kind of assay: Matrix/G assay ELISA; E6 peptide titrated on GST-PDZ.
For GST-SAST2 PDZ domain 1, the concentration giving a half-maximal response (EC50) was determined as 1200 nM. That is a single-digit micromolar value.
Take “GST-Magi3 PDZ domain 1 (from UniProt Q5TCQ9 18-106)”: the EC50 was 310 nM.
